Results as given in US20170145391.

Tests used:
[1] = target: 4E-BP1 (Calbiochem), Q13541
[2] = target: His-S6K1C, P23443
Sequence of His-S6K1C, P23443 (P23443 332-502): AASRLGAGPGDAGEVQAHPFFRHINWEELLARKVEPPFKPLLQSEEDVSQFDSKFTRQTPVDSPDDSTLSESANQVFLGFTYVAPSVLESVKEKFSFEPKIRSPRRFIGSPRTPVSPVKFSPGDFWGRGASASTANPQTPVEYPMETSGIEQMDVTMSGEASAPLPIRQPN

Sequence of 4E-BP1 (Calbiochem), Q13541 (Q13541 whole entry): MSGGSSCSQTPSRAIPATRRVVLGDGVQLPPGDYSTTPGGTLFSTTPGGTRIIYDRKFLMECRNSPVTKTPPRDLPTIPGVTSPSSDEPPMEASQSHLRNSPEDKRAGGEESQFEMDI

B1: FLAG-mTORβ (protein)
chain: MLGTGPAAATTAATTSSNVSVLQKKVTEDLSKTLLMYTVPAVQGFFRSISLSRGNNLQDTLRVLTLWFDYGHWPDVNEALVEGVKAIQIDTWLQVIPQLIARIDTPRPLVGRLIHQLLTDIGRYHPQALIYPLTVASKSTTTARHNAANKILKNMCEHSNTLVQQAMMVSEELIRVAILWHEMWHEGLEEASRLYFGERNVKGMFEVLEPLHAMMERGPQTLKETSFNQAYGRDLMEAQEWCRKYMKSGNVKDLTQAWDLYYHVFRRISKQLPQLTSLELQYVSPKLLMCRDLELAVPGTYDPNQPIIRIQSIAPSLQVITSKQRPRKLTLMGSNGHEFVFLLKGHEDLRQDERVMQLFGLVNTLLANDPTSLRKNLSIQRYAVIPLSTNSGLIGWVPHCDTLHALIRDYREKKKILLNIEHRIMLRMAPDYDHLTLMQKVEVFEHAVNNTAGDDLAKLLWLKSPSSEVWFDRRTNYTRSLAVMSMVGYILGLGDRHPSNLMLDRLSGKILHIDFGDCFEVAMTREKFPEKIPFRLTRMLTNAMEVTGLDGNYRITCHTVMEVLREHKDSVMAVLEAFVYDPLLNWRLMDTNTKGNKRSRTRTDSYSAGQSVEILDGVELGEPAHKKTGTTVPESIHSFIGDGLVKPEALNKKAIQIINRVRDKLTGRDFSHDDTLDVPTQVELLIKQATSHENLCQCYIGWCPFW
B1 was tested. Which “mTOR in vitro kinase assay; immunoblot with phosphospecific antibody pS65-4E-BP1” value [1] did it give?
Its value is “mTORβ can phosphorylate both S6K1 and 4E-BP1 in vitro, but to a lesser extent than mTORα”.

What about the “mTOR in vitro kinase assay; immunoblot with phosphospecific antibody pT389-S6K1” value [2] of the same protein?
The value was “mTORβ can phosphorylate both S6K1 and 4E-BP1 in vitro, but to a lesser extent than mTORα”.
